# Reference: publication PMC11887224
# B1: TRPFL (structured_DNA)
# DNA: CTACGGTGCCTTGAAGTGACTCGTTCCGTCCCTGGCCGCTCCTACTATCGATGTGTCATAGCAGGTCACTTCCAGG
# Molecular target: Trop-2 (recombinant, His-tagged) (UniProt P09758 27-274)
# Experiment: SPR
# Chain of Trop-2 (recombinant, His-tagged) (P09758 27-274): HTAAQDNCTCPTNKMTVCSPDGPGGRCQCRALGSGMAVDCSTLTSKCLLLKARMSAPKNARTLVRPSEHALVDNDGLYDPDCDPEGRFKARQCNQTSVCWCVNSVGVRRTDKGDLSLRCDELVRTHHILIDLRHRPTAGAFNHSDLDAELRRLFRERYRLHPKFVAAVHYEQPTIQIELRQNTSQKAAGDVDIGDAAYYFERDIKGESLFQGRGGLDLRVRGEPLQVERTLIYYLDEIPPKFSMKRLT
binder,measurement,value
B1,Kd,110 nM
